Measured values as given in patent US10428140B2, “Anti-EphA4 antibody” (EISAI R&D MANAGEMENT CO., LTD., priority 2015, dated 2019).

T1: human EphA1 (Homo sapiens, UniProt P21709)
T1 construct: a protein of the extracellular region of each human Eph receptor fused with the SEAP protein and the His tag; made in house; host or cells: Expi293F cells (culture supernatant)
T1 sequence (P21709 26-547 limits assumed): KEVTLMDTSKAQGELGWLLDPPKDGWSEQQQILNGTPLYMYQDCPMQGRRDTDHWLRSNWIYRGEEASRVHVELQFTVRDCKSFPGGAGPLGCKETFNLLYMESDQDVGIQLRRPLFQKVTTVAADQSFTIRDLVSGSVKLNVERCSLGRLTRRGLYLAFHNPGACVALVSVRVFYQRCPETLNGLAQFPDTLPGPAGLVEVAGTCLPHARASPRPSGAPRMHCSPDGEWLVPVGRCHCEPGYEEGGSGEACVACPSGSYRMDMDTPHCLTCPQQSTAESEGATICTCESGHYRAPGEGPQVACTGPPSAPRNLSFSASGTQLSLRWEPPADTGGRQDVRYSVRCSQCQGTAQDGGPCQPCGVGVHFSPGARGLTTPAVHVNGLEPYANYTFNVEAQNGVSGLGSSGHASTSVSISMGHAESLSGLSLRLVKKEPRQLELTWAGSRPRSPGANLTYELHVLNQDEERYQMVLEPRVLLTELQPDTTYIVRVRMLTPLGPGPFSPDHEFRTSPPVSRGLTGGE

T2: human EphB4 (Homo sapiens, UniProt P54760)
T2 construct: a protein of the extracellular region of each human Eph receptor fused with the SEAP protein and the His tag; made in house; host or cells: Expi293F cells
T2 sequence (P54760 16-539 limits assumed): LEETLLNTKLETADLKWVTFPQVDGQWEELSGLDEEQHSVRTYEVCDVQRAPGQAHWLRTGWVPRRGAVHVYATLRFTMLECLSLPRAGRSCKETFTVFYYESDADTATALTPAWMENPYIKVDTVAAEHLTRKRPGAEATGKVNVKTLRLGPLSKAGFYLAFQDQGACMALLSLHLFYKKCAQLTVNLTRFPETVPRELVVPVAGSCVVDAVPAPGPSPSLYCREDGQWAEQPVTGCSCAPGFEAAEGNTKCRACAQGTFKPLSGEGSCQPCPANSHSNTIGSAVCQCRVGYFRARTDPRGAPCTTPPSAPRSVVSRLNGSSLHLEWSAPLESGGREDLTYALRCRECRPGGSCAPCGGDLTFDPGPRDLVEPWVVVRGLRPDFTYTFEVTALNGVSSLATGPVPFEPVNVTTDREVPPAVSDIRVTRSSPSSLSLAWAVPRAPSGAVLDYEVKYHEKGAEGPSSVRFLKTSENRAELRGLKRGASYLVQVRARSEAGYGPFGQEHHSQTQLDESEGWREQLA


How the values were obtained:
Test in all cases: Selectivity ELISA of humanized antibodies for human Eph receptor
Assay type in all cases: binding
[1] = biological target: T1, human EphA1; conditions: coated protein 1 nM
How it was run: (§1)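 Steps: coat anti-His antibody; block, then 1% BlockAce overnight at 4 °C; add Eph receptor extracellular region-SEAP-His (1 nM final) 1 h; add humanized antibody 1 h; add HRP anti-IgG 1 h; develop TMB; stop with acid; read 450 nm.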

[2] = biological target: T3, human EphA4 (Homo sapiens, UniProt P54764); conditions: coated protein 1 nM; reference set to 100%
T3 construct: made in house; not restated for the human SEAP-His protein
How it was run: as §1

[3] = biological target: T2, human EphB4; conditions: coated protein 1 nM
How it was run: as §1

T3 sequence (P54764 20-547): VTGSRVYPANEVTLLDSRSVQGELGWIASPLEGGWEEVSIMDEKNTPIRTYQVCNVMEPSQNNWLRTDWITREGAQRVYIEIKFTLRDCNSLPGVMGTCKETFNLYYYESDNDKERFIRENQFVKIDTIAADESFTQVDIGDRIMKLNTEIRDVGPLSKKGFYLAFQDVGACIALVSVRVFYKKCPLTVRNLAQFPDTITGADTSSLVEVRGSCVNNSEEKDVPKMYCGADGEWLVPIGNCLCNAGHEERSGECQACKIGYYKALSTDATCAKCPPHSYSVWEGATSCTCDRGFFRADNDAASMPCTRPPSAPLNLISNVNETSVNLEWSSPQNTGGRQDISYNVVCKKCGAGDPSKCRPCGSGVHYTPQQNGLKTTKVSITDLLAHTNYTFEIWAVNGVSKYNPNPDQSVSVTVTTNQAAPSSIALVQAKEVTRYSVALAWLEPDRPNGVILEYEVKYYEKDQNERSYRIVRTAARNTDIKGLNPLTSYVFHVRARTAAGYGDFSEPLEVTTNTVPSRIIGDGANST

Molecule	hEphA1-SEAP-: absorbance at 450 nm, percentage with respect to hEphA4-SEAP-His as 100% [1] [%]	hEphA4-SEAP-: absorbance at 450 nm, percentage with respect to hEphA4-SEAP-His as 100% [2] [%]	hEphB4-SEAP-: absorbance at 450 nm, percentage with respect to hEphA4-SEAP-His as 100% [3] [%]
75 (antibody, synthetic humanized antibody heavy chain variable region sequence; synthetic humanized antibody light chain variable region sequence; synthetic antibody constant region sequence) VH: QVQLVQSGSELKKPGASVKVSCKASGYTFTDYSMHWVRQAPGQGLEWMGWINTETGEPTYAQGFTGRFVFSLDTSVSTAYLQISSLKAEDTAVYYCARIPLYYYGSRYWYFDVWGQGTTVTVSS VL: DIQMTQSPSSLSASVGDRVTITCRASENIYRNLAWYQQKPGKAPKLLVYAATNLADGVPSRFSGSGSGTDYTLTISSLQPEDFATYYCQHFWGTPWTFGQGTKVEIK ASTKGPSVFPLAPSSKSTSGGTAALGCLVKDYFPEPVTVSWNSGALTSGVHTFPAVLQSSGLYSLSSVVTVPSSSLGTQTYICNVNHKPSNTKVDKRVEPKSCDKTHTCPPCPAPPAAAPSVFLFPPKPKDTLMISRTPEVTCVVVDVSHEDPEVQFNWYVDGVEVHNAKTKPREEQFNSTFRVVSVLTVVHQDWLNGKEYKCKVSNKGLPAPIEKTISKTKGQPREPQVYTLPPSREEMTKNQVSLTCLVKGFYPSDIAVEWESNGQPENNYKTTPPMLDSDGSFFLYSKLTVDKSRWQQGNVFSCSVMHEALHNHYTQKSLSLSPG	4.7	100	4.6
132 (antibody, V domains shown, synthetic humanized antibody heavy chain variable region sequence; synthetic humanized antibody light chain variable region sequence) VH: QIQLVQSGSELKKPGASVKVSCKASGYTFTDYSMHWVRQAPGQGLKWMGWINTETGEPTYAQGFTGRFVFSLDTSVSTAYLQISSLKAEDTAVYYCARIPLYYYGSRYWYFDVWGQGTTVTVSS VL: EIVMTQSPATLSVSPGERATLSCRASENIYRNLAWYQQKPGQSPRLLIYAATNLADGIPARFSGSGSGTEYTLTISSLQSEDFAVYYCQHFWGTPWTFGQGTKVEIK	4.8	100	4.8
76 (antibody, V domains shown, synthetic humanized antibody heavy chain variable region sequence; synthetic humanized antibody light chain variable region sequence) VH: QVQLVQSGSELKKPGASVKVSCKASGYTFTDYSMHWVRQAPGQGLKWMGWINTETGEPTYAQGFTGRFVFSLDTSVSTAYLQISSLKAEDTAVYYCARIPLYYYGSRYWYFDVWGQGTTVTVSS VL: DIQMTQSPSSLSASVGDRVTITCRASENIYRNLAWYQQKPGKAPKLLVYAATNLADGVPSRFSGSGSGTDYTLTISSLQPEDFATYYCQHFWGTPWTFGQGTKVEIK	5.1	100	5.2
133 (antibody, V domains shown, synthetic humanized antibody heavy chain variable region sequence; synthetic humanized antibody light chain variable region sequence) VH: QVQLVQSGSELKKPGASVKVSCKASGYTFTDYSMHWVRQAPGQGLEWMGWINTETGEPTYAQGFTGRFVFSLDTSVSTAYLQISSLKAEDTAVYYCARIPLYYYGSRYWYFDVWGQGTTVTVSS VL: EIVMTQSPATLSVSPGERATLSCRASENIYRNLAWYQQKPGQSPRLLIYAATNLADGIPARFSGSGSGTEYTLTISSLQSEDFAVYYCQHFWGTPWTFGQGTKVEIK	4.9	100	4.9

The next lines start with the values.

hEphA1-SEAP-: absorbance at 450 nm, percentage with respect to hEphA4-SEAP-His as 100% [1] [%]	hEphA4-SEAP-: absorbance at 450 nm, percentage with respect to hEphA4-SEAP-His as 100% [2] [%]	hEphB4-SEAP-: absorbance at 450 nm, percentage with respect to hEphA4-SEAP-His as 100% [3] [%]	Molecule
5.6	100	5.7	144 (antibody, V domains shown, synthetic humanized antibody heavy chain variable region sequence; synthetic humanized antibody light chain variable region sequence) VH: QVQLVQSGSELKKPGASVKVSCKASGYTFTDYSMHWVRQAPGQGLEWMGWINTETGEPTYADDFKGRFVFSLDTSVSTAYLQISSLKAEDTAVYYCARIPLYYYGSRYWYFDVWGQGTTVTVSS VL: DIQMTQSPSSLSASVGDRVTITCRASENIYRNLAWYQQKPGKAPQLLLYAATNLADGVPSRFSGSGSGTDYTLTISSLQPEDFATYYCQHFWGTPWTFGQGTKVEIK
5.1	100	5.1	134 (antibody, V domains shown, synthetic humanized antibody heavy chain variable region sequence; synthetic humanized antibody light chain variable region sequence) VH: QVQLVQSGSELKKPGASVKVSCKASGYTFTDYSMHWVRQAPGQGLKWMGWINTETGEPTYAQGFTGRFVFSLDTSVSTAYLQISSLKAEDTAVYYCARIPLYYYGSRYWYFDVWGQGTTVTVSS VL: EIVMTQSPATLSVSPGERATLSCRASENIYRNLAWYQQKPGQSPRLLIYAATNLADGIPARFSGSGSGTEYTLTISSLQSEDFAVYYCQHFWGTPWTFGQGTKVEIK
5.2	100	5.1	135 (antibody, V domains shown, synthetic humanized antibody heavy chain variable region sequence; synthetic humanized antibody light chain variable region sequence) VH: QVQLVQSGSELKKPGASVKVSCKASGYTFTDYSMHWVRQAPGQGLEWMGWINTETGEPTYADDFKGRFVFSLDTSVSTAYLQISSLKAEDTAVYYCARIPLYYYGSRYWYFDVWGQGTTVTVSS VL: EIVMTQSPATLSVSPGERATLSCRASENIYRNLAWYQQKPGQSPRLLIYAATNLADGIPARFSGSGSGTEYTLTISSLQSEDFAVYYCQHFWGTPWTFGQGTKVEIK
6.5	100	6.3	160 (antibody, V domains shown, synthetic humanized antibody heavy chain variable region sequence; synthetic humanized antibody light chain variable region sequence) VH: QIQLVQSGSELKKPGASVKVSCKASGYTFTDYSMHWVRQAPGQGLKWMGWINTETGEPTYADDFKGRFVFSLDTSVSTAYLQISSLKAEDTAVYYCARIPLYYYGSRYWYFDVWGQGTTVTVSS VL: DIQMTQSPSSLSASVGDRVTITCRASENIYRNLAWYQQKPGKAPQLLLYAATNLADGVPSRFSGSGSGTDYTLTISSLQPEDFATYYCQHFWGTPWTFGQGTKVEIK
5.4	100	5.4	159 (antibody, V domains shown, synthetic humanized antibody heavy chain variable region sequence; synthetic humanized antibody light chain variable region sequence) VH: QVQLVQSGSELKKPGASVKVSCKASGYTFTDYSMHWVRQAPGQGLKWMGWINTETGEPTYADDFKGRFVFSLDTSVSTAYLQISSLKAEDTAVYYCARIPLYYYGSRYWYFDVWGQGTTVTVSS VL: DIQMTQSPSSLSASVGDRVTITCRASENIYRNLAWYQQKPGKAPQLLLYAATNLADGVPSRFSGSGSGTDYTLTISSLQPEDFATYYCQHFWGTPWTFGQGTKVEIK
